What was measured:
[1] = target: T1, human CD8 on cells (primary human CD8 positive T cells); T cells of mice expressing hCD8; human PBMC-derived … (human, UniProt P01732 22-235; P10966 22-210); test: flow cytometry on primary human CD8 positive T cells
T1 construct: This is native CD8 on cells
Experimental: Recombinant human IL-2 (50 IU/ml) was supplemented into culture media 72 hours post CD3/CD28 Dynabead incubation. When cells had expanded to the necessary cell number for flow cytometry analysis, the Dynabeads were removed by magnetic separation and cells were immediately used to determine the binding of CD8 antibodies or isotype controls.
(§1) mAb1 and isotype control antibodies were 4 fold serially diluted in stain buffer (PBS containing 2% FBS) in either an 8-point titration for human CD8 positive T cells or 11 point titration for cynomolgus monkey T cells, starting at a concentration of 200 nM. A sample without primary antibody, stain buffer only, was also included as a control. Antibody titrations were plated out, 50 ul/well, into V-bottom microplates. Primary human and cynomolgus monkey T cells were stained for 15 minutes with LIVE/DEAD™ Fixable Violet Dead Cell Stain (Invitrogen) diluted 1:1000 in PBS. Cells were washed twice, and resuspended in PBS containing 2% FBS. To gate out CD4+ monkey T cells a CD4 antibody from BD Biosciences, that reacts with cynomolgus CD4+ T cells, was incubated with monkey T cells for 30 min on ice and cells were subsequently washed once with stain buffer. […] Samples were analyzed with the FlowJo10 software such that only viable, CD8 positive, single cells were evaluated for antibody binding.

[2] = target: T2, cynomolgus monkey CD8 on cynomolgus monkey T cells (cynomolgus monkey); test: flow cytometry on cynomolgus monkey T cells (CD4+ gated out), APC anti-mouse IgG secondary
Experimental: as §1, with “buffer. Human CD8 positive and monkey T cells in stain buffer were plated such that 50 ul of cell suspension, containing approximately 150,000 T cells, were added into wells of the 96-well V-bottom microplate containing the titrated antibodies.” for “buffer.”

[3] = target: T1, human CD8 on cells (primary human CD8 …); test: flow cytometry (geometric MFI of APC, secondary APC goat anti-mouse IgG) on primary human CD8 positive T cells; four-parameter fit; unit taken from the axis 'Concentration of Antibody Log (M)' [panel Human CD8+ T-cells, table under the plot]
Experimental: as §1, with “buffer. Human CD8 positive and monkey T cells in stain buffer were plated such that 50 ul of cell suspension, containing approximately 150,000 T cells, were added into wells of the 96-well V-bottom microplate containing the titrated antibodies.” for “buffer.”

[4] = target: T2, cynomolgus monkey CD8 on cynomolgus …; test: flow cytometry (geometric MFI of APC, secondary APC goat anti-mouse IgG) on cynomolgus monkey T cells gated on CD8 positive cells; four-parameter fit; unit taken from the axis 'Concentration of Antibody Log (M)' [panel Cynomolgus Monkey T-cells, table under the plot]
Experimental: as §1, with “buffer. Human CD8 positive and monkey T cells in stain buffer were plated such that 50 ul of cell suspension, containing approximately 150,000 T cells, were added into wells of the 96-well V-bottom microplate containing the titrated antibodies.” for “buffer.”

[5] = target: human CD8 alpha and beta subunit on JRT3.T3/AP1-Luc/CD28/CD8AB/1G4AB clone 18 reporter T cells (human, UniProt P01732 22-235; P10966 22-210); test: cell-based or functional assay
human CD8 alpha and beta subunit on JRT3.T3/AP1-Luc/CD28/CD8AB/1G4AB clone 18 reporter T cells, sequence (P01732 22-235, chain 1 of 2): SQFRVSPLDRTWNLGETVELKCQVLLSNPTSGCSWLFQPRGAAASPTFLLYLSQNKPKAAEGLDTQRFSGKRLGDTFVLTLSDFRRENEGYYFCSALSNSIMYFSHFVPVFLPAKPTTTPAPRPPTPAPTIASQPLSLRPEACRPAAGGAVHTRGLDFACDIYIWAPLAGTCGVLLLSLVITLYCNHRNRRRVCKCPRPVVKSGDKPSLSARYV
human CD8 alpha and beta subunit on JRT3.T3/AP1-Luc/CD28/CD8AB/1G4AB clone 18 reporter T cells, sequence (P10966 22-210, chain 2 of 2): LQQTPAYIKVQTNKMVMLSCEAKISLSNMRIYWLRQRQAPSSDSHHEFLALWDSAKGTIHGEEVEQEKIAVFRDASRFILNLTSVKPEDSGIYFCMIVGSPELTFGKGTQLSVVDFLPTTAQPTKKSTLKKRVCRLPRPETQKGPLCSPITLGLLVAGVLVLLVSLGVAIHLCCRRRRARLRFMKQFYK

[6] = target: T2, cynomolgus monkey CD8 on cynomolgus …; test: flow cytometry on cynomolgus monkey T cells
Experimental: as §1, with “buffer. Human CD8 positive and monkey T cells in stain buffer were plated such that 50 ul of cell suspension, containing approximately 150,000 T cells, were added into wells of the 96-well V-bottom microplate containing the titrated antibodies.” for “buffer.”

[7] = target: T1, human CD8 on cells (primary human CD8 …); test: flow cytometry on primary human CD8 positive T cells, APC anti-mouse IgG secondary
Experimental: as §1, with “buffer. Human CD8 positive and monkey T cells in stain buffer were plated such that 50 ul of cell suspension, containing approximately 150,000 T cells, were added into wells of the 96-well V-bottom microplate containing the titrated antibodies.” for “buffer.”

[8] = target: T3, hCD8α with a C-terminal myc-myc-polyhistidine tag (hCD8α.mmh, REGN3940) (human, UniProt P01732 22-182); test: SPR (Sierra Sensors MASS-1), mAb captured by anti-mouse Fc, hCD8α.mmh as analyte, 25°C
T3 construct: not shown: C-terminal myc-myc-polyhistidine tag
T3 sequence (P01732 22-182 limits assumed): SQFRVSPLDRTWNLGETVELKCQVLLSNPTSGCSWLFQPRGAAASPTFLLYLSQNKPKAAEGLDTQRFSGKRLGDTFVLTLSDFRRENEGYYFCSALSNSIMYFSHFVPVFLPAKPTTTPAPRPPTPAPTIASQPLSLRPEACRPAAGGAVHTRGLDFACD
Experimental: Equilibrium dissociation constants (KD values) for hCD8α.mmh binding to purified anti-CD8 mAbs were determined using a real-time surface plasmon resonance biosensor using a Sierra Sensors MASS-1 high-capacity amine sensor surface was derivatized by amine coupling with a polyclonal goat anti-mouse Fc antibody (GE, #BR-1008-38) to capture purified anti-CD8 mAbs. SPR binding studies were performed in a buffer composed of 0.01M HEPES pH 7.4, 0.15M NaCl, 3 mM EDTA, 0.05% v/v Surfactant P20 (HBS-ET running buffer). Different concentrations of hCD8α with a C-terminal myc-myc-polyhistidine tag (hCD8α.mmh, REGN3940) prepared in HBS-ET running buffer (ranging from 300 nM to 3.7 nM, 3-fold dilutions) were injected over the anti-CD8 mAb captured surface at a flow rate of 50 μL/minute. Association of hCD8α.mmh to the captured monoclonal antibody was monitored for 4 minutes and the dissociation of hCD8α.mmh in HBS-ET running buffer was monitored for 10 minutes. All of the binding kinetics experiments were performed at 25° C. Kinetic association (kₐ) and dissociation (kd) rate constants were determined by fitting the real-time sensorgrams to a 1:1 binding model using Scrubber 2.0c curve fitting software. Binding dissociation equilibrium constants (KD) and dissociative half-lives (t½) were calculated from the kinetic rate constants as: […]

T1 sequence (P01732 22-235, chain 1 of 2): as the sequence (P01732 22-235, chain 1 of 2) above
T1 sequence (P10966 22-210, chain 2 of 2): as the sequence (P10966 22-210, chain 2 of 2) above

Fold Change (MFI compared to isotype control antibody at 25 nM) [1]: 2780 fold
EC50 [2]: 0.33 nM
EC50 [3]: 0.369 nM
EC50 [4]: 0.329 nM
IC50 [M], reduction of AP1-luciferase activity in CD8 T cell/APC luciferase assay [5]: 1.2e-09 M
Fold Change (MFI compared to isotype control at 25 nM) [6]: 1480 fold
EC50 [7]: 0.37 nM
Kd [8]: 32.6 nM
koff [8]: 0.00519 s⁻¹
kon [8]: 159000 M⁻¹ s⁻¹
t1/2 [8]: 2.2 min
B1: mAb1 (anti-CD8 monoclonal antibody) (antibody, V domains shown)
VH: QVQLVESGGGVDQPGRSLRLSCAASGFIFSNYGIHWVRQAPGKGLEWVAVIWYDGSNKYFEDSVKGRFNISRDNSKNIVYLQMNSLRAEDTAVYFCARSYDMLTGSGDYYGLDVWGQGTTVTVSS
VL: DIQMTQSPSSLSASVGDRVTITCRASQDITNYLAWFQQKPGKAPKSLIYGASSLQSGVPSKFSGSGSGTDFTLTISSLQPEDFATYYCQQYNNYPLTFGGGTKVEIK
notes: It was captured by anti-mouse Fc in SPR and detected with anti-mouse IgG in flow cytometry; It is tied here because mAb1 is the only exemplary antibody; also called H2aM25428N; mAb1-L1

Source: US20240409637A1 (Regeneron, published 2024)
